These results are taken from patent publication US20240218057A1 (ROCKEFELLER UNIVERSITY, published 2024).

Sequences and labels used below:
B1: C908 (antibody, V domains shown)
VH: EVQLVQSGAEVKKPGESLKISCKASGYSFTIYWIGWVRQMPGKGLEWMGIIYPGESETRYSPSFQGQVTISADKSISTAYLQWRSLKASDTAMYYCARGGPPGGVKLELTDYWGQGTLVTVSS
VL: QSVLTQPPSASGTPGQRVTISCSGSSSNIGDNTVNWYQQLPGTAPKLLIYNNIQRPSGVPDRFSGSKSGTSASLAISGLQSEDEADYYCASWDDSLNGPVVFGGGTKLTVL
B2: C912 (antibody, V domains shown)
VH: QVQLVESGGGVVQPGRSLRLSCAASGFSFSTYTMHWVRQTPDKGLEWVAVISDDGKNKYYADSMKGRFTISRDNSKNTLYLQMSSLRPEDTAVYYCARDLENVMIEVALESWGQGTLVTVSS
VL: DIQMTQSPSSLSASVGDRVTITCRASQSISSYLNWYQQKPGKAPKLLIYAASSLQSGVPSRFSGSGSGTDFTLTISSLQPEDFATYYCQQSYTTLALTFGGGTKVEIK
B3: C909 (antibody, V domains shown)
VH: QVQLVQSGAEVKKPGASVKVSCRASGYTFPNYDLNWVRQATGQGLEWMGWMNPNSGNTGYAQKFQGRITMTRITSISTAYMELSSLRSEDTAVYYCARGRANWNSNFLLDSWGQGTLVTVSS
VL: QSALTQPASVSGSPGQSITISCTGTSSDVGGYNLVSWYQQYPGNVPKLMIYEDAKRPSGVSNRFSGSKSANTASLTISGLQAEDEADYYCCSYAGSSTRYVFGTGTKVTVL
B4: C1019 (antibody, V domains shown)
VH: QVQLVESGGGVVQPGTPLRLSCAASGFTFSSYAMHWVRQAPGKGLEWVAMISYDGGNKYYADSVKGRFTISRDNSKNTLFLQMNSLRGEDTAVYYCARSFSIRIGHKDNWGQGTLVTVSS
VL: NFMLTQPHSVSESPGKTVTISCTGSSGSIANNYVQWYQQRPGSAPTPVIYEDDQRPSGVPDRFSGSIDSSSNSASLSISGLKTEDEADYYCQSYDSTNFWVFGGGTKLTVL
B5: C1024 (antibody, V domains shown)
VH: QVQLVESGGGVVQPGRSLRLSCAASGFTFSDYAMHWVRQAPGKGLEWVAMISYDGNSQYYADSVKGRFTISRDNSKNTLYLQMNILRPEDTAVYYCARTFSIRIGHHDYWGQGTLVTVSS
VL: NFMLTQPHSVSESPGKTVTISCTGSSGSIASNYVHWYQQRPGSAPTTVIFEDNQRPSGVPDRFSGSIDSSSNSASLTISGLKTEDEADYYCQSYDSSSFWVFGGGTKLTVL
B6: C911 (antibody, V domains shown)
VH: QVQLVESGGGVVQPGGSLRLSCAASAFTFSSYAMHWIRQSPGKGLEWVAVISSDGSSKFYADSVKGRFTISRDNSKNTLYLQMNSLSAEDTAVYYCARDLENVLIEVALQDWGQGTLVTVSS
VL: DIQMTQSPSSLSASVGDRVTITCRASQSINSYLNWYQQKPGKAPKLLIYAASSLHSGVPSRFSGSGSGTDFTLTISSLQPEDFATYYCQQSYTTLALTFGGGTKVEIK
B7: C910 (antibody, V domains shown)
VH: QVQLVQSGAAVKKPGASVKVSCKASGYTFTSYDINWVRQAPGQGLEWMGWMNPNSGNTGFAQRFQGRATLSRDTSITTAYMELTTLRSEDTAVYYCARGRANYNSKFLLDNWGQGTLVTVSS
VL: QSALTQPASVSGSPGQSITISCTGTSSDVGSYNLVSWYQQHPGTAPKLMIYEGSKRPSGVSDRFSGYKSGNTASLTISGLQADDEADYYCCSFAGSTTRYVFGTGTRVTVL
B8: C906 (antibody, V domains shown)
VH: EVQLVESGGGLIKPGRSLRLSCTASGFTFGDYAMTWFRQAPGKGLEWVGFIRSKAYGGTTGYAASVKYRFTISRDDSKSIVYLQMDSLKTEDTAVYYCTRWDGWSQHDYWGQGTLVTVSS
VL: DIVMTQSPLSLSVTPGEPASISCRSSQSLLHSNGINYFDWYLQKPGQSPQLLIYLGSNRASGVPDRFSGSGSGTDFTLKISRVEAEDVGVYYCMQVLQIPYTFGQGTKLEI
B9: C904 (antibody, V domains shown)
VH: QVQLQQWGAGLLKPSETLSLTCAVNGGSLSLYYWSWIRQSPGKGLEWIGEINHFGGSDYKPSLKSRVSISVDTSTNQFSLKLSSVTAADTAVYYCARKPLLHSNISPGAFDIWGQGTMVTVSS
VL: EIVLTQSPGTLSLSPGERATLSCRASQSVAGSYLAWYQQKPGQAPRLLIYGASSRATGVPDRISGSGSGTDFTLTISRLEPEDFAVYYCQQYTNTPRTFGGGTKVEI
B10: C1023 (antibody, V domains shown)
VH: QVQLVQSGAEMKKPGASVKISCKASGDTFTTNYFHWVRQAPGQGLEWMGIINPSAGSTTYAQRFQGRVTMTGDSSTNTVYLELRSLRSEDTAMYFCAKGSYIPAMRSSFDPWGQGTLVTVSS
VL: EIVLTQSPGTLSLSPGERATLSCRASQSVSHRYLAWYQQKPGQAPRLLIDGASNRATGIPDRFSGSGSGTDFTLTISRLEPEDFGVYYCQQYGSSPPFTFGQGTKLEIK
B11: C903 (antibody, V domains shown)
VH: EVQLVESGGGLIQPGGSLRLSCAASGFIVSRNYMSWVRQAPGKGLEWVSIIYSGGSTFYADSVKGRFTISRDNSKNTVYLQMNSLRAEDTAVYYCARDYGDFYFDYWGQGTLVTVSS
VL: EIVLTQSPGTLSLSPGERATLSCRASQSVSSSYLAWYQQKPGQAPRLLIFDVSSRATGIPDRFSGSGSGTDFTLTISRLEPEDFAVYYCQQYGSSPRTFGQGTKVEIK
B12: C1020 (antibody, V domains shown)
VH: QVQLVQSGAEVKKPGASVKISCKASGYSFSNYYIHWVRQAPGQGLEWMGIINPSGNSISYAQKFQGRVTMTGDTSTSTVYMELSSLRSEDTAVYYCARSVFPVPAAGGCDYWGQGTLVTVSS
VL: DIQMTQSPSSLSASVGDRVTITCRASQSITTSLNWYQQKPGKAPKLLIYSASTLESGVPSRFSGSGSGTDFTLTISSLQPEDFATYYCQQTYRAPPYTFGQGTKLEIK
B13: C1021 (antibody, V domains shown)
VH: QVQLVQSGAELKKPGASVKVSCKASGYTFSTYYIHWVRQAPGQGLEWMGIINPEAGSTSYAQKFQGRVTMTTDTSTSTVYMELISLRSQDTAIYYCARDAVGVPAINSLEYWGQGTLVTVSS
VL: EIVLTQSPATLSLSPGERATLSCRASQSISSYLAWYQQKPGQAPRLLIYDASNRATDISARFSGSGSGTDFTLTISSLEPEDFAVYYCQHRSNWPPSFTFGGGTKVEIK
B14: C905 (antibody, V domains shown)
VH: QVQLQESGPGLVTPSQTLSLTCSVSGGSIHSRDFYWGWIRQHPGKGLEWIGHIYYTGNTYYNPSLKSRVTISADTSKNQFSLKLSSVTAADTAVYYCARATVVITLHWFDPWGQGTLVTVSS
VL: NFMLTQPHSVSESPGKTVTISCTGSGGSIASNYVQWYQQRPGSAPTTVIYEDNERPSGVPDRFSGSIDSSSNSASLTISGVKTEDEADYFCQSYDVGNPVIFGGGTKLTVL
B15: C1022 (antibody, V domains shown)
VH: QVQLVQSGAEVKTPGASVKVSCQASGDTFTSQYLHWVRQAPGQGLEWMGIINPTAGSTTYAQKFQGRVTMTRDTSTSTVYMELRSLRSEDMAVYYCARGGFIPMVRGFIDHWGQGTLVTVSS
VL: QSALTQPASVSGSPGQSITISCTGTSSDVGGYNYVSWYQQHPGKAPKLMIYDVSNRPSGVSTRFSGSKSGNTASLTISGLQAEDEADYYCSSPTSSNTHVFGTGTKVTVL
B16: C907 (antibody, V domains shown)
VH: QVQLQESGPGLVKPSETLSLTCTVSGGSITSYYWTWIRQSPGKGLEWIGYIYYIGSTNYNPSLKSRLTISLATSKNQFSLRLNSVTAADTAVYYCASYYNDTSGYSYGLDVWGQGTTVTVSS
VL: DIQMTQSPSSLSAFVGDRVTITCRAGQSISSYLHWYQQKPGKAPKLLIYATSTLQSGVPSRFSGRGSGTDFTLTISGLQPEDFATYYCQQSYSTPQTFGQGTKVEIK

The target of the experiment is T1, SARS-COV-2 RBD (SARS-COV-2, UniProt P0DTC2 319-539).
T1 construct: also called WT RBD
The experiment in a line: ELISA, RBD coated on plate. A general note: ELISA stands for enzyme-linked immunosorbent assay.
On to B1, for which it took 1.27 ng/mL to reach a half-maximal effect (EC50). As for B2, the EC50 was found to be 2.45 ng/mL. Molecule B3 displayed an EC50 of 3.24 ng/mL. Next, B4: 2.8 ng/mL. Next, B5: 2.37 ng/mL; B6: 2.36 ng/mL.

In turn, B7 displayed a concentration giving a half-maximal response (EC50) of 2.47 ng/mL. As for B8, the figure is 1.07 ng/mL; as for B9, 3.31 ng/mL. Next, B10: 1.13 ng/mL. Next, B11: 2.54 ng/mL; B12: 2.06 ng/mL. As for B13, a half-maximal response (EC50) required 2.53 ng/mL. As for B14, the figure is 3.06 ng/mL; as for B15, 1.66 ng/mL; as for B16, 3.71 ng/mL.

Usually EC50 stands for the concentration that produces a half-maximal response. A low value points to an effect from little substance.
